The target of assay [1] is HA of A/HongKong/156/97 (H5N1, clade 0) (influenza A virus A/HongKong/156/97 (H5N1)) (UniProt O56140).
Assay [2] has as its target HA of A/HongKong/156/97 (H5N1, clade 0) (influenza A virus A/HongKong/156/97 (H5N1)), O56140.
Assay [3] concerns the target HA of A/VietNam/1194/04 (H5N1, clade 1) (influenza A virus A/VietNam/1194/04 (H5N1)).
In assay [4] the target is HA of A/Indonesia/5/05 (H5N1, clade 2.1) (influenza A virus A/Indonesia/5/05 (H5N1)).
In assay [5] the target is HA of the H5N1 viruses.

The molecule “RpSP-D trimers (from UniProt Q9N1X4 21-378) (natural protein)” gave an HI assay: minimal inhibitory concentration of RpSP-D trimers; failed to inhibit in assay [1] greater than 4500 ng/100 µl.

B1: recombinant porcine SP-D, Q9N1X4 21-378 (natural protein)
chain: AEMKTYSQRAVANACALVMCSPMENGLPGRDGRDGREGPRGEKGDPGLPGAVGRAGMPGLAGPVGPKGDNGSTGEPGAKGDIGPCGPPGPPGIPGPAGKEGPSGQQGNIGPPGTPGPKGETGPKGEVGALGMQGSTGARGPAGLKGERGAPGERGAPGSAGAAGPAGATGPQGPSGARGPPGLKGDRGPPGERGAKGESGLPGITALRQQVETLQGQVQRLQKAFSQYKKVELFPNGRGVGEKIFKTGGFEKTFQDAQQVCTQAGGQMASPRSETENEALSQLVTAQNKAAFLSMTDIKTEGNFTYPTGEPLVYANWAPGEPNNNGGSSGAENCVEIFPNGKWNDKACGELRLVICEF
As to B1, the HI assay: concentration of RpSP-D required to prevent hemagglutination in assay [2] came to 4500 ng/100 µl.

B2: RpSP-D trimers (natural protein)
chain: B1 chain
Turning to B2, the HI assay: minimal inhibitory concentration of RpSP-D trimers; failed to inhibit in assay [3] and in assay [4] was greater than 4500 ng/100 µl in each case.

B3: RpSP-D multimers (natural protein)
chain: B1 chain
In assay [5], B3 registered an HI assay: minimal inhibitory concentration of RpSP-D multimers of 1400 ng/100 µl.
